Target: T1, BMC12 (uncultured bacterium (metagenome))
T1 chain: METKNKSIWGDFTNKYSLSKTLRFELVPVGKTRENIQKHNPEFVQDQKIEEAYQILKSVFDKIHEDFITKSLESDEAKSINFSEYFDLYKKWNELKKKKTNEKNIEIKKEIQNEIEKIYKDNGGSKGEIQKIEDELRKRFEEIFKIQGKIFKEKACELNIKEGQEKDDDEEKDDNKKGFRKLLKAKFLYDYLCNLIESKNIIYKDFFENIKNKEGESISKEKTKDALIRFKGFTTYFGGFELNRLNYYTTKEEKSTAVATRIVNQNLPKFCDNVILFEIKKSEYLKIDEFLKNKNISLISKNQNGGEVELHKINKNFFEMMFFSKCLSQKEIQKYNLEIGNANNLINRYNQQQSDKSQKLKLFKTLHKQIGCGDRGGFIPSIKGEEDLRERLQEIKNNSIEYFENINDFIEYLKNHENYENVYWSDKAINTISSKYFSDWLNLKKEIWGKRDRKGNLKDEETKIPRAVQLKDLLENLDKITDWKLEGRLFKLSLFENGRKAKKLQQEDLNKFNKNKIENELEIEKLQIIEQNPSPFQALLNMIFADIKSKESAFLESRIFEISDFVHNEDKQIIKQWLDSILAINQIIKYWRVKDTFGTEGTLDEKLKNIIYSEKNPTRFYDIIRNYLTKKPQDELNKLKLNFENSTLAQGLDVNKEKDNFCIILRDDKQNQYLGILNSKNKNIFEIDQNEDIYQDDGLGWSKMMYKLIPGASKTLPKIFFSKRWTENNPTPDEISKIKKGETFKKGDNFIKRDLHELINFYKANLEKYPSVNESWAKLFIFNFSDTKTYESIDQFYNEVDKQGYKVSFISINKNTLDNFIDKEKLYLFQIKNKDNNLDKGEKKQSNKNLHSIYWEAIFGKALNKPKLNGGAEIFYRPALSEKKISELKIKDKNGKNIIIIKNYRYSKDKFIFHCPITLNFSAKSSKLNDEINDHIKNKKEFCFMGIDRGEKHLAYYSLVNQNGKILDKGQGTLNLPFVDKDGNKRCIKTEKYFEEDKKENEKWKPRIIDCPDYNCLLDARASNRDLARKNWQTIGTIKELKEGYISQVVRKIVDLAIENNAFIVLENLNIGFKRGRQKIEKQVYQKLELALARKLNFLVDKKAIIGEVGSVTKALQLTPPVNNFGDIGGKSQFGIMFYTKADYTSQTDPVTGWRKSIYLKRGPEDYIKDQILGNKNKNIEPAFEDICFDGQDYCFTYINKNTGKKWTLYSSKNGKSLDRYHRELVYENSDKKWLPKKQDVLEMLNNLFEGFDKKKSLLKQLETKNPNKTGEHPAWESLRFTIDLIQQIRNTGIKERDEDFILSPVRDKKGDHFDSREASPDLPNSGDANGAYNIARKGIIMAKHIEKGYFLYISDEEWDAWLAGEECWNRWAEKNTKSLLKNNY
Test: cell_activity; PAM not stated; E. coli depletion, 30 C
Method in brief: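 E. coli carrying arabinose-induced (0.2%) BMC nuclease, grown at 30° C., made electrocompetent and electroporated with 50-100 ng plasmid carrying gRNA against malQ. Transformants plated on selective M9-glucose agar with kanamycin/ampicillin (± nourseothricin), and growth scored after 48 h at 30° C.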

B1: malQ gRNA (BMC stem-loop + 24 nt spacer) ; malQ protospacer (ssRNA ; dsDNA)
RNA: GAUUUCUACUAUUGUAGAUGUGGCGGUACGUUGAUGCAUCGCG
DNA 1: GTGGCGGTACGTTGATGCATCGCG
DNA 2: CGCGATGCATCAACGTACCGCCAC
  activity: > 99.9 % colony reduction
